Measured values as given in the supplement of paper PMC10126150.
± gives the standard deviation of the averaged measurements.

Test system: ATP
Experiment: switch fluorescence ratio, 500 uM ATP over buffer (Cy3 cluster intensity, sum of 5 cycles each) (fold (ratio)); higher = stronger signal-on switching upon ATP binding; sequences stand for … in TCGTCGGCAGCGTCAGATGTGTATAAGAGACAGTTTTTTTTTTTTTTTTTTTTTTTTT…TC
Settings: aptamer strand: ATP DNA aptamer (quencher-CACCTGGGGGAGTATTGCGGAGGAAGG + anchor), 100 nM annealed; ATP concentration: 500 uM
Summary of the method: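 Between each of five buffer/ATP cycles, the flow-cell was stripped with NaOH and re-annealed. Each cycle imaged Cy3-labelled switching-strand clusters, annealed to 100 nM quencher-labelled ATP aptamer on a modified Illumina MiSeq flow-cell, first in selection buffer and then after 15 min with 500 uM ATP at 22 °C. The fluorescence ratio is summed target-cycle over summed buffer-cycle Cy3 intensity per cluster, averaged per switch-domain sequence, with clusters outside 100-1000 RFU excluded.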
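Further: ATP exposure 15 min at 22 °C before imaging.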

Point of comparison: GAGTGCGAAC, switch fluorescence ratio 1.05 ± 0.082. Against it:
- GAGGCTAATT — within error, 1.03 ± 0.057
- GAGGCTCGGA — within error, 0.982 ± 0.029
- GAGGCTGTAT — within error, 1 ± 0.011
- GAGGCTGTGC — the same, 1.052 ± 0.0057
- GAGGGAATTT — within error, 1.01 ± 0.021
- GAGGGACTAA — within error, 0.9972 ± 0.0095
- GAGGGACTCT — within error, 0.964 ± 0.013
- GAGGGAGCTT — within error, 1.04 ± 0.026
- GAGGGAGGAG — within error, 1 ± 0.029
- GAGGGATGGG — within error, 0.975 ± 0.017
- GAGGGATGTT — within error, 1.01 ± 0.0092
- GAGGGATTCC — within error, 1.06 ± 0.095
- GAGGGCACTT — within error, 0.978 ± 0.043
- GAGGGCCTTA — within error, 0.9885 ± 0.0025
- GAGGGCGGCG — within error, 1.01 ± 0.11
- GAGGGCTAGT — within error, 0.9713 ± 0.0027
- GAGGGGAAGC — within error, 0.985 ± 0.046
- GAGGGGACAG — within error, 0.979 ± 0.035
- GAGGGGAGAC — within error, 1.02 ± 0.048
- GAGGGGCAGT — within error, 0.975 ± 0.02
- GAGGGGCGAC — within error, 0.974 ± 0.032
- GAGGGGGCCC — within error, 1.01 ± 0.026
- GAGGGGGGCG — within error, 1.04 ± 0.085
- GAGGGGGTGC — within error, 1.04 ± 0.069
- GAGGGGTAGG — within error, 0.977 ± 0.021
- GAGGGGTATT — within error, 0.986 ± 0.016
- GAGGGGTCAG — within error, 1 ± 0.039
- GAGGGGTCCG — within error, 1 ± 0.11
- GAGGGGTGCA — within error, 0.992 ± 0.015
- GAGGGGTGGG — within error, 1.04 ± 0.076
- GAGGGGTTCG — within error, 1.01 ± 0.022
- GAGGGTACTG — within error, 1.032 ± 0.0053
- GAGGGTTAAG — within error, 1.02 ± 0.029
- GAGGGTTCGG — within error, 0.972 ± 0.031
- GAGGGTTTGA — within error, 1.0098 ± 0.00022
- GAGGTACTGG — within error, 1.018 ± 0.008
- GAGGTACTTT — within error, 0.993 ± 0.022
- GAGGTAGCGT — within error, 1.01 ± 0.015
- GAGGTATGGG — within error, 0.9761 ± 0.0077
- GAGGTATTAT — within error, 0.9688 ± 0.0074
- GAGGTCGAAA — within error, 0.98 ± 0.013
- GAGGTGAGTT — within error, 0.983 ± 0.01
- GAGGTGCCTA — within error, 0.991 ± 0.02
- GAGGTGGGCT — within error, 1 ± 0.067
- GAGGTGGGGG — within error, 0.993 ± 0.029
- GAGGTGGGTG — within error, 1.015 ± 0.0056
- GAGGTGTTGA — within error, 0.9979 ± 0.003
- GAGGTTAAAT — within error, 0.992 ± 0.034
- GAGGTTATAC — higher, 1.38 ± 0.042
- GAGGTTATAT — within error, 0.992 ± 0.017
- GAGGTTGGAT — within error, 0.982 ± 0.016
- GAGGTTGGGC — within error, 0.993 ± 0.03
- GAGGTTGTGG — within error, 0.973 ± 0.06
- GAGGTTTGGC — within error, 0.988 ± 0.051
- GAGTAAAATT — within error, 1.13 ± 0.18
- GAGTAAAGTC — lower, 0.934 ± 0.029
- GAGTAACTCG — within error, 1.007 ± 0.0067
- GAGTAACTGG — within error, 0.983 ± 0.027
- GAGTAAGTGC — within error, 0.972 ± 0.053
- GAGTAATGTT — within error, 1.02 ± 0.016
- GAGTACAAAA — within error, 1.02 ± 0.015
- GAGTACCAGG — higher, 1.25 ± 0.017
- GAGTACTAGT — within error, 1.015 ± 0.0072
- GAGTACTGAG — higher, 1.163 ± 0.0012
- GAGTACTGTT — within error, 0.972 ± 0.045
- GAGTAGGACC — within error, 1.03 ± 0.016
- GAGTAGTAGT — within error, 0.967 ± 0.026
- GAGTAGTATA — within error, 0.992 ± 0.049
- GAGTATCTTT — within error, 0.998 ± 0.018
- GAGTATGGGA — within error, 0.983 ± 0.034
- GAGTATTAAT — within error, 1.01 ± 0.02
- GAGTCATGAG — within error, 1.06 ± 0.049
- GAGTCGGTGG — within error, 1.4 ± 0.63
- GAGTCGTGTG — within error, 1.04 ± 0.024
- GAGTGAAGGG — within error, 1.02 ± 0.016
- GAGTGAAGGT — within error, 0.9963 ± 0.008
- GAGTGAGGCA — within error, 0.981 ± 0.02
- GAGTGAGTGG — within error, 1.019 ± 0.0056
- GAGTGATGGC — within error, 1.03 ± 0.014
- GAGTGCATGG — within error, 1 ± 0.012
- GAGTGCCGTG — within error, 1.01 ± 0.065
- GAGTGCGGTT — within error, 0.99 ± 0.057
- GAGTGGGTAG — within error, 1.03 ± 0.025
- GAGTGGTTGC — the same, 1.05 ± 0.12
